Assay in all cases: SPR; KD relative to WT C2;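 note: biacore SPR at 37 °C, anti-C2 mAbs captured on an anti-human IgG chip, alanine or serine C2 surface mutants tested, KD from 1:1 fit compared with wild-type C2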
Assay [1] concerns the target T1, human C2 K244A (human, UniProt P06681 21-752).
T1 sequence: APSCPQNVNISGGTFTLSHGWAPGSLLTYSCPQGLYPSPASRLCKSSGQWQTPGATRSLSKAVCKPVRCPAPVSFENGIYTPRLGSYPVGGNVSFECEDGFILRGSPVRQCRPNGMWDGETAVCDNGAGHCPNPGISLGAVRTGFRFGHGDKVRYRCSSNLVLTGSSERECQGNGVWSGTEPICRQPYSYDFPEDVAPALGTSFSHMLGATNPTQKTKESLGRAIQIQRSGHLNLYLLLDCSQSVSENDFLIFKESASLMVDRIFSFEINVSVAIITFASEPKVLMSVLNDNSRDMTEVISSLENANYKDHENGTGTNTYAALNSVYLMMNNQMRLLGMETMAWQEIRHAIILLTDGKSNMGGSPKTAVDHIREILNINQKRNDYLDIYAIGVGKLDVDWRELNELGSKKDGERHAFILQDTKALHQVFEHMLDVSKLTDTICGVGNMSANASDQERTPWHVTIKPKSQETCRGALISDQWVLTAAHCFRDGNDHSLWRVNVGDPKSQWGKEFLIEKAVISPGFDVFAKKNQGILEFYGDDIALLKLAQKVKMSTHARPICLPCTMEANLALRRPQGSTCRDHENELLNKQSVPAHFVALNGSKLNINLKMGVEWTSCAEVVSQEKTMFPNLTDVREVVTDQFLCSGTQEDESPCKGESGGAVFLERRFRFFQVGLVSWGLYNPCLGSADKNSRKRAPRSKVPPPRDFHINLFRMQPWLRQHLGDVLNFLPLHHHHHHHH

The target in assay [2] is T2, human C2 L279A (human, UniProt P06681 21-752).
T2 sequence: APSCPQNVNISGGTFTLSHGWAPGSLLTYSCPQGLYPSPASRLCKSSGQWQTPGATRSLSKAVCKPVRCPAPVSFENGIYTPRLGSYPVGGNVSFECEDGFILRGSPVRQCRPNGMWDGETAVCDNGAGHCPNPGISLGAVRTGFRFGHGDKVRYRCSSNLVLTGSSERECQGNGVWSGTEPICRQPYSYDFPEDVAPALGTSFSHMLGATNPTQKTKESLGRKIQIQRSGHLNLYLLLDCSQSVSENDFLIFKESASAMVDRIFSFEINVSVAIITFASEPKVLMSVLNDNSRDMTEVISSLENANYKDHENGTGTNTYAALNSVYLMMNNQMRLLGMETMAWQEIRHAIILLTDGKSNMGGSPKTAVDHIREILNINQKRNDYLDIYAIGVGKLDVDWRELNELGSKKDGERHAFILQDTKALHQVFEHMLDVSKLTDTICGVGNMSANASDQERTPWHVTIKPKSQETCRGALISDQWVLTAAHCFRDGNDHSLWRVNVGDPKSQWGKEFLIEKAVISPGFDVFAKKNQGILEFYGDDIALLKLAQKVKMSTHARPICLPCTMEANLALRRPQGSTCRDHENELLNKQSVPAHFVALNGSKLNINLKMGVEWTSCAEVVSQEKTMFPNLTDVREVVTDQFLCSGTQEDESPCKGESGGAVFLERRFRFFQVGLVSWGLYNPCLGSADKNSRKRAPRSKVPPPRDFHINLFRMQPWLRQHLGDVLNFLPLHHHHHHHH

The target of assay [3] is T3, human C2 N380A (human, UniProt P06681 21-752).
T3 sequence: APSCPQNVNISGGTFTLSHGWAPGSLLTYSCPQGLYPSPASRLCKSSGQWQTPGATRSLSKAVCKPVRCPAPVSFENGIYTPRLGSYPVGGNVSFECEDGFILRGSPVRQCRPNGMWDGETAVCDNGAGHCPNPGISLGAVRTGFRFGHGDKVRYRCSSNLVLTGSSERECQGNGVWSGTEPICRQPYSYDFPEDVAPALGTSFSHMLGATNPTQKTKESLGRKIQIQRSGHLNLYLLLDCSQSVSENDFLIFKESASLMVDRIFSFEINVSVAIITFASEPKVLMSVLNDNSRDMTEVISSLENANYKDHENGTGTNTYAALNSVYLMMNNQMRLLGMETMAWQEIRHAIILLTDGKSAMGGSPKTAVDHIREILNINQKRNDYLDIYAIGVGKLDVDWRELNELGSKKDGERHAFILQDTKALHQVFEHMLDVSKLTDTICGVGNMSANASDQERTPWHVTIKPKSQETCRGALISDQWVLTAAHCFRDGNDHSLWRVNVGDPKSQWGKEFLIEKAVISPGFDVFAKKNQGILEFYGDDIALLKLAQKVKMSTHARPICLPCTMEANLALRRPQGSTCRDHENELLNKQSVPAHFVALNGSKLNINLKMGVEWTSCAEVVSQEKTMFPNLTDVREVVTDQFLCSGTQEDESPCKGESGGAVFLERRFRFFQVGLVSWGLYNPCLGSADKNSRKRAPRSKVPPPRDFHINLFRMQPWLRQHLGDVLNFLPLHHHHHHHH

The target in assay [4] is T4, human C2 K457A (human, UniProt P06681 21-752).
T4 sequence: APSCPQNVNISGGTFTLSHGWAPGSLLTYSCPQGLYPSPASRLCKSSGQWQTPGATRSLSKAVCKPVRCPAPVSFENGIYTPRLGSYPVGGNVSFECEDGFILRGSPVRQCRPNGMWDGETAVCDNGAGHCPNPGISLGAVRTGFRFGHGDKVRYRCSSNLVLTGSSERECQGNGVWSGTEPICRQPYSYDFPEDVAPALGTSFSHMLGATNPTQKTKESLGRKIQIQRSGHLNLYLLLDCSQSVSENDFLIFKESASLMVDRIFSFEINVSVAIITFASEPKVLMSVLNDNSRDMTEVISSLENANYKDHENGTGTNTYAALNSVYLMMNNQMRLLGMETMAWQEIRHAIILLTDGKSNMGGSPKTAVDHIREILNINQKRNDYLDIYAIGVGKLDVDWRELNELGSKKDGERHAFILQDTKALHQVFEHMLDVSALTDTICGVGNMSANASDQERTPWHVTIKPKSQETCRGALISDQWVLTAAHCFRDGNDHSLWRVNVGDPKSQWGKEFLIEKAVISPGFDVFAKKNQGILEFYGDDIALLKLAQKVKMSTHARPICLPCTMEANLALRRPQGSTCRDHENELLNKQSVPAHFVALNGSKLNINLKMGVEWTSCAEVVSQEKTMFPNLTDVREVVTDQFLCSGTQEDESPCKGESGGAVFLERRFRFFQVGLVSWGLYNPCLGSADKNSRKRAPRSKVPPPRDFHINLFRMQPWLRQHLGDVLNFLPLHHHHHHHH

B1: RF16-214 (antibody, V domains shown)
VH: EVQLLESGGGLVQPGGSLRLSCAASGFTFSWYQMMWVRQAPGKGLEWVSRIYPSGGGTAYADSVKGRFTISRDNSKNTLYLQMNSLRAEDTAVYYCARDAGYGDNWGQGTLVTVSS
VL: QSALTQPPSVSVSPGQTASITCSGDKLGEKYASWYQQKAGQSPVMVIYQDRKRPSGIPERFSGSNSGNTATLTISGTQAMDEADYYCQAWDTRAVVFGGGTKLTVLG
Take B1: the Fold diff in assay [1] came out at 3 fold; in assay [2], 8 fold; in assay [3] it was 2 fold; in assay [4], 1 fold.

For the origin of these results see patent US20220332804A1 (CSL INNOVATION, published 2022).
